± gives the standard deviation of the averaged measurements.
B1: library; a variant is named by its letters at N, in order (parent)
chain: GCUGUCACCGGUGCUUGGUACGUUAUAUUCAGCCGGUCUGAUGAGUCUNNNNNNAGACGAAACAGC

Legend:
[1] = variants of: B1; experiment: normalized RNA/DNA level without ligand (relative to sTRSVctl = 100) (log10 (% of sTRSVctl)); HEK293T overexpressing SLC46A1; higher = less ribozyme self-cleavage, higher mRNA level; details: without (6R,S)-folinic acid; ligand present: no
In short: (§1)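 Total RNA, extracted with EDTA 72 h after HEK293T cells were transfected with 4 µg per 6-well well of reporter-linked ribozyme switch library plasmids, was reverse-transcribed, amplified, barcoded and sequenced. Ligand, if used, was added 1 h before transfection. RNA level was derived from RNA reads divided by DNA reads and normalized to a spiked-in non-cleaving sequence or to the top sequences. This was multiplied by 100 and log10-transformed, with the top set of 25 sequences and a ≥100 DNA read minimum.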

[2] = variants of: B1; experiment: normalized RNA/DNA level with ligand (relative to sTRSVctl = 100) (log10 (% of sTRSVctl)); HEK293T overexpressing SLC46A1; ligand concentration (+) RNA-Seq: 6 mM; higher = less ribozyme self-cleavage, higher mRNA level; details: with (6R,S)-folinic acid; ligand present: yes
In short: as §1

[3] = variants of: B1; experiment: FACS-Seq fitted mean relative fluorescence mCherry/BFP without ligand (log10 relative fluorescence); HEK293T overexpressing SLC46A1; higher = higher reporter protein expression; details: without (6R,S)-folinic acid; ligand present: no
In short: (§2)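 The ribozyme switch sat in an mCherry reporter, delivered by lentivirus into HEK293T libraries along with an EF1α-BFP marker. Enriched cells were incubated 48 h with or without ligand, sorted into 6 bins by mCherry/BFP, and bin genomic DNA was PCR-amplified, barcoded and MiSeq-sequenced. Fluorescence equals the fitted normal mean of the bin counts after normalization. Those log10(mCherry/BFP) means were scaled to five spiked-in control ribozymes.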

[4] = variants of: B1; experiment: FACS-Seq fitted mean relative fluorescence mCherry/BFP with ligand (log10 relative fluorescence); HEK293T overexpressing SLC46A1; ligand concentration (+) FACS-Seq: 6 mM; higher = higher reporter protein expression; details: with (6R,S)-folinic acid; ligand present: yes
In short: as §2

Row | Variant | normalized RNA/DNA level without ligand (log10) [1] | normalized RNA/DNA level with ligand (log10) [2] | FACS-Seq fitted mean (log10) [3] | FACS-Seq fitted mean (log10) [4]
1 | GAAAGU | 1.9823 ± 0.00097 | 2.02 ± 0.034 |  | 
2 | GAAAGC | 1.966 ± 0.0051 | 2.0058 ± 0.0012 |  | 
3 | AUUUUA | 1.969 ± 0.0082 | 2.01 ± 0.023 | 0.5131 ± 0.0034 | 0.318 ± 0.1
4 | AUUUUC | 2.031 ± 0.0051 | 2 ± 0.021 | 0.447 ± 0.23 | 0.549 ± 0.048
5 | AUUUUG | 1.927 ± 0.014 | 1.99 ± 0.05 | 0.462 ± 0.029 | 0.552 ± 0.039
6 | CAAAGA | 1.988 ± 0.015 | 1.99 ± 0.034 |  | 
7 | CAAAGG | 1.909 ± 0.0072 | 2 ± 0.021 |  | 
8 | CAAAGC | 1.992 ± 0.015 | 2 ± 0.04 |  | 
9 | CAAAGU | 1.983 ± 0.013 | 2.01 ± 0.025 |  | 
10 | GUUGUG | 1.879 ± 0.0056 | 2.01 ± 0.023 | 0.391 ± 0.14 | 0.458 ± 0.072
11 | GUUGUA | 1.962 ± 0.011 | 1.97 ± 0.05 | 0.281 ± 0.083 | 0.415 ± 0.15
12 | CAACAU | 1.978 ± 0.0086 | 2.02 ± 0.057 |  | 
13 | CAACAA | 1.966 ± 0.015 | 1.99 ± 0.032 |  | 
14 | CAACAG | 1.976 ± 0.00034 | 2.01 ± 0.062 |  | 
15 | CAACAC | 2.0222 ± 0.00082 | 2.014 ± 0.019 |  | 
16 | CAACCA | 2.032 ± 0.015 | 2.019 ± 0.013 |  | 
17 | UUUUGA | 1.976 ± 0.013 | 2.02 ± 0.036 | 0.586 ± 0.1 | 0.704 ± 0.022
18 | UUUUGG | 1.8812 ± 0.0015 | 2.01 ± 0.028 | 0.169 ± 0.054 | 0.473 ± 0.2
19 | GUUGCU | 2.02 ± 0.023 | 2.008 ± 0.018 | 0.299 ± 0.016 | 0.44 ± 0.32
20 | GUUGCG | 1.91 ± 0.02 | 2.02 ± 0.038 | 0.325 ± 0.01 | 0.566 ± 0.19
21 | AUUUAU | 2.011 ± 0.0041 | 2.01 ± 0.035 | 0.207 ± 0.088 | 0.186 ± 0.11
22 | AUUUAC | 2.001 ± 0.018 | 2.03 ± 0.026 | 0.138 ± 0.029 | 0.497 ± 0.13
23 | AUUGCG | 1.8333 ± 0.00083 | 2 ± 0.04 | 0.231 ± 0.12 | 0.245 ± 0.22

Row | Variant | normalized RNA/DNA level without ligand (log10) [1] | normalized RNA/DNA level with ligand (log10) [2] | FACS-Seq fitted mean (log10) [3] | FACS-Seq fitted mean (log10) [4]
24 | GAAACC | 2.035 ± 0.013 | 2.03 ± 0.033 |  | 
25 | GAAACG | 1.961 ± 0.0057 | 2 ± 0.038 |  | 
26 | GAAACA | 2.017 ± 0.018 | 2.04 ± 0.026 |  | 
27 | UUUCUG | 1.92 ± 0.0064 | 2 ± 0.061 | 0.112 ± 0.063 | 0.197 ± 0.012
28 | CAAAAA | 1.962 ± 0.007 | 1.96 ± 0.025 |  | 
29 | CAAAAG | 1.903 ± 0.0085 | 1.945 ± 0.015 |  | 
30 | CUUGUG | 2.021 ± 0.012 | 2.02 ± 0.039 | 0.147 ± 0.16 | -0.331 ± 0.28
31 | GAACAU | 1.9736 ± 0.0012 | 2.01 ± 0.035 |  | 
32 | GAACAC | 1.998 ± 0.018 | 2.014 ± 0.0037 |  | 
33 | AAAAGU | 1.94 ± 0.013 | 2 ± 0.041 |  | 
34 | AAAAGA | 1.957 ± 0.0042 | 2.02 ± 0.021 |  | 
35 | CUUUUU | 1.991 ± 0.013 | 2.021 ± 0.018 | 0.61 ± 0.16 | 0.733 ± 0.016
36 | CUUUUC | 2.06 ± 0.023 | 2.02 ± 0.036 | 0.721 ± 0.2 | 0.481 ± 0.091
37 | UAACAU | 1.956 ± 0.016 | 2 ± 0.023 |  | 
38 | CAAACA | 1.979 ± 0.014 | 2 ± 0.044 |  | 
39 | CAAACG | 2.02 ± 0.0085 | 2.03 ± 0.036 |  | 
40 | GUUCUA | 2.03 ± 0.0066 | 2.035 ± 0.0031 | 0.333 ± 0.067 | 0.412 ± 0.031
41 | GUUGGA | 1.977 ± 0.013 | 2.02 ± 0.04 | 0.594 ± 0.3 | 0.154 ± 0.35
42 | GUUGGU | 1.98 ± 0.027 | 2.02 ± 0.029 | 0.346 ± 0.21 | 0.126 ± 0.09
43 | AAAAUC | 2.051 ± 0.0098 | 2.01 ± 0.023 |  | 
44 | AAAAUG | 1.935 ± 0.013 | 2.02 ± 0.024 |  | 
45 | UUUGGG | 1.71 ± 0.022 | 1.94 ± 0.048 | 0.388 ± 0.062 | 0.73 ± 0.13
46 | UUUGGA | 1.9 ± 0.015 | 1.98 ± 0.029 | 0.333 ± 0.049 | 0.499 ± 0.056
